The target of the test is SBD641 (384-641), full-length substrate-binding domain of human Hsp70 with the interdomain linker (human) (UniProt P0DMV8). The experiment in a line: native MS; nESI-MS of SBD641 with NR peptide at 1:1 molar ratio, 150 mM ammonium acetate pH 7.4, sample cone voltage 60 V (raised for collisional activation).

A value given as a limit tells only on which side of the number the result lay.

As for NRLLLTG [NR peptide (NRLLLTG)], the peptide molecules bound per SBD641 dimer is under 2 and the stoichiometry N amounted to 1.
